# Experiments:
# [1] = test system: triple-negative breast cancer (TNBC) tumors; experiment: Flow cytometry of immune cells in harvested TNBC tumors; format: in vivo, BALB/c mice
# Excerpt: At study completion, the tumors were harvested, digested, and single cell suspensions stained for immune cells. Dual-epitope blocking of CCR2 reduced TAMs, MDSCs, and M2-Macrophages and increased M1-Macrophages in triple-negative breast cancer (TNBCs).
# We observed that dual-epitope scFv combination treatment outperforms small molecule CCR2 antagonist (SMA) and decreased tumor-associated macrophages (TAMs), myeloid-derived suppressor cells (MDSCs), and M2-macrophages and increased M1-macrophages. Single cell suspension from the harvested tumors were analyzed by flow cytometry. The cells were stained for (A) CD68+ TAMs, (B) MDSCs, (C) MHC class II macrophages (M1), and (D) CD206+ macrophages (M2).
# Treatment groups included: PBS, CCR2 small molecule antagonist (SMA), PEG(20K)-ECL2-scFv, PEG(20K)-NTD-scFv, and NTD & ECL2 combination (co-dosing of PEG(20K)-ECL2-scFv and PEG(20K)-NTD-scFv), with *p<0.05, **p<0.01, and ***p<0.001 by one-way ANOVA followed by Tukey's post-test.
# [2] = test system: TNBCs in the mammary fat pads; experiment: TNBC tumor growth, dual epitope blocking; format: in vivo, female BALB/c mice; settings: scFvs 1 mg/kg, SMA 2 mg/kg, tail vein, days 7, 9, 12, 14, 16, 18
# Protocol: Further, we evaluated the effect of dual epitope blocking of CCCR2 on tumor growth. TNBCs were injected into the mammary fat pads of female BALB/c mice. Treatment of tumored mice started on days 7, 9, 12, 14, 16, and 18. To enhance the circulation half-life of the NTD-scFv and ECL2-scFv, we used site-directed mutagenesis to introduce a cysteine at the C-terminus of the scFvs for covalent attachment of a PEG-maleimide with molecular weight of 20 kDa. Animals (n=10 per group) were systemically (via tail vein injection) treated with (1) PBS, (2) CCR2-small molecule antagonist (SMA), (3) PEG(20K)-NTD-scFv, (4) PEG(20K)-ECL2-scFv, and (5) a NTD and ECL2 combo (co-dosing of PEG(20K)-NTD-scFv and PEG(20K)-ECL2-scFv).
# [3] = test system: RAW 264.7 mouse macrophages; experiment: Macrophage polarization, RT-PCR of M1/M2 marker genes, RAW 264.7; format: cell-based; settings: RAW 264.7, 24 h; LPS 100 ng/mL, IL-4 20 ng/mL, 58C-scFv 1 μM
# Protocol: RAW 264.7 mouse macrophages were incubated with either LPS (100 ng/mL), IL-4 (20 ng/mL; PeproTech, Rocky Hill, NJ), or 58C-scFv (1 μM) for 24 h. For the multivalency studies, RAW 264.7 mouse macrophages were first incubated with IL-4 (20 ng/mL) for 24 h to stimulate an M2 phenotype. Following the 24 h incubation, fresh media with 58C-scFv (89 nM) was added to the cells and incubated for an additional 24 h. Total RNA was isolated with QIAzol lysis reagent (Qiagen, Germany) and total cDNA was generated using the New England Biolabs first stand synthesis kit (Ipswich, MA). RNA expression was detected by reverse transcription (RT)-PCR performed with the SYBR Green PCR kit (Qiagen). For each sample, the ΔΔCt value was calculated. Experiments were performed in triplicate. […]
# To assess the effects of the anti-CCR2 scFvs on macrophage polarization, RAW 264.7 and bone marrow-derived macrophages (BMDMs) were treated with NTD-scFv and ECL2-scFv. […] To determine whether these changes were additive, synergistic, or antagonistic, the combination indices (CI) were calculated for NTD-scFv and ECL2-scFv by treating cells with a combination of NTD-scFv and ECL2-scFv. CI was calculated by: CI=(CA,X/ICX,A)+(CB,X/ICX,B), where CA,X and CB,X are the concentration of drug A (in this case NTD-scFv) and B (here, ECL2-scFv) used in combination to achieve x % drug effect. […]
# 4T1 breast cancer cells = experiment: Cell binding by flow cytometry, 4T1; settings: MFI
# Excerpt: FIG. 16. ECL2-scFv binding to the ECL2 domain of the CCR2 chemokine receptor.
# human CCR2 = molecular target: T1, human CCR2 (Homo sapiens, UniProt P41597); experiment: Cross-reactivity with human CCR2; format: binding
# T1 construct: endogenous in cells; host or cells: MDA-MB-231 human breast cancer cells
# [4] = test system: RAW 264.7 macrophage cells; experiment: Cell binding analysis by flow cytometry, RAW 264.7; set-up: species or system mouse; settings: fluorescently labeled scFv
# Protocol: FIG. 13. Binding of monomeric 58C-scFv (circles), low valency 58C-scFv attached to liposomes (triangles), and high valency 58C-scFv attached to liposomes (squares) to RAW 264.7 macrophage cells as determined by flow cytometry. […] The liposomes were incubated with DyLight 650 NHS Ester labeled 58C-scFv at 4° C. overnight. Cells were detached with 5 mM EDTA and re-suspended in PBS to a concentration of 50,000 cells per 300 μL. The cells were incubated with various dilutions of DyLight 650 NHS Ester labeled 58C-scFv (free, low degree of valency, or high degree of valency) for 1 h at 4° C. Cells were washed three times with 5% BSA and analyzed in the APC channel of a MACSQuant Analyzer 10 flow cytometer (Miltenyi Biotec, Bergisch Gladbach, Germany).
# Cells were detached with 5 mM EDTA and re-suspended in PBS to a concentration of 50,000 cells per 300 μL. Cells were plated in a 48-well plate and incubated for 30 min at 4° C. After removing the PBS solution, the cells were incubated with various dilutions of DyLight 650 NHS Ester labeled 58C-scFv for 1 h at 4° C. Cells were washed three times with 5% BSA, detached with EDTA, and analyzed in the APC channel of a MACSQuant Analyzer 10 flow cytometer (Miltenyi Biotec, Bergisch Gladbach, Germany).
# T1 sequence (P41597 whole entry): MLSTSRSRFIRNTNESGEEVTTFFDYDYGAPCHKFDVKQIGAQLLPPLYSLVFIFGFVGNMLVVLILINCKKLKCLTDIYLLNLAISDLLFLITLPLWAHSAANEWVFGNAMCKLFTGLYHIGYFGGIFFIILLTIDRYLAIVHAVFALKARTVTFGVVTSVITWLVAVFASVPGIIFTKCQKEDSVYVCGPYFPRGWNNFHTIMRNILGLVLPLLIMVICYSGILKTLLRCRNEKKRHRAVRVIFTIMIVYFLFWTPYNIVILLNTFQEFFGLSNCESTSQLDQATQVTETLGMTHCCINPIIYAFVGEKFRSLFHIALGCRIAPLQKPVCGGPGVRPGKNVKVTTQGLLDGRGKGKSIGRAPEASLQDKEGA
molecule,measurement,setting,value
Cc1ccc2c(c1)C1(CCN(CCc3nc(-c4ccccc4)oc3C)CC1)OC(=O)N2 [RS 504393],"effects on TAMs, MDSCs, M1 and M2 macrophages compared to PBS control","[1]; FIG. 24A-D, SMA 2 mg/kg",not significant
same,"change in Tregs, CD8+ and CD4+ T cells compared to PBS treated mice",[1]; flow cytometry,no statistically significant reduction
same,"reduction in tumor volume, order among treatment groups",[2],weakest effect
"IL-4: interleukin, M2 promoting agent (protein, UniProt P05112 25-153, looked up) Interleukin-4: HKCDITLQEIIKTLNSLTEQKTLCTELTVTDIFAASKNTTEKETFCRAATVLRQFYSHHEKDTRCLGATAQQFHRHKQLIRFLKRLDRNLWGLAGLNSCPVKEANQSTLENFLERLKTIMREKYSKCSS","macrophage polarization, M1/M2 gene expression compared to the untreated control",[3],increased both Arg-1 and Mgl2 gene expression
"ECL2-scFv: scFv against the 2nd extracellular loop (ECL2) of CCR2; Example 3 names scFv 4h, SEQ ID NO:6 (protein, listed as Homo sapiens) scFv: MKKTAIAIAVALAGFATVAQADYKDDDDKLQSVLTQPPSASGTPGQRVTISCSGSSSNIGSHTVNWYQQLPGTAPKLLIYRNNQRPSGVPDRFSGSKSGTSASLAISGLRSEDEADYYCAAWDDSLSGVVFGGGTKLTVLGEGKSSGSGSESKASQVTLKESGAEVKKPGASVKVSCKASGYTFTNFYIHWVRRAPGQGLEWMGIINPSDGRTTYAQKFQGRVTMTRDTSTSTLYMELTSLRSEDTAVYYCGRGGHYSNYFGQPSTWGQGTLVTVSSVEAS",binding to 4T1 breast cancer cells,4T1 breast cancer cells,binds
same,"cross-reactivity, binding to human CCR2",human CCR2,bind to human CCR2
same,binding to RAW 264.7 cells,[4],binds
